Key:
[1] = target: full-length FLAG-tagged human TSLPR and full-length HA-tagged human IL-7Ralpha co-expressed on HEK293T cells (human) (UniProt Q9HC73); test: cell-based or functional assay
[2] = target: T1, C-terminally biotinylated human TSLP_R127A_R130S (pHL-TSLP_R127A_R130S-AVITAG construct) (human, UniProt Q969D9 29-159, specific C-terminal in vivo biotinylation on the AVITAG); test: biolayer interferometry (Octet RED96), biotinylated TSLP on streptavidin biosensors, 1:1 model
T1 construct: Made in HEK293T cells with BirA co-transfection; immobilised on streptavidin biosensors for BLI; also called biotinylated TSLP; not shown: C-terminal AVITAG (and purification tag) of the pHL-AVITAG vector
T1 sequence (Q969D9 29-159 R127A/R130S limits assumed): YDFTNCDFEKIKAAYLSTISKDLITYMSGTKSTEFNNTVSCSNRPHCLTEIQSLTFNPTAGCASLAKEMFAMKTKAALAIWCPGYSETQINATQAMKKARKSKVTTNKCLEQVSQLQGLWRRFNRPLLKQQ

[3] = target: T1, C-terminally biotinylated human …; test: biolayer interferometry (Octet RED96), biotinylated TSLP on streptavidin biosensors, 1:1 model, average of three replicates
Description: All BLI experiments were performed in PBS buffer supplemented with 0.01% (w/v) BSA and 0.002% (v/v) Tween 20, with an Octet RED96 instrument (ForteBio), operating at 25° C.
All data were fitted with the FortéBio Data Analysis 9.0.0.4 software using a 1:1 ligand model. The reported values for the fitted parameters represent the average (and standard deviation) from three replicate measurements.

full-length FLAG-tagged human TSLPR and full-length HA-tagged human IL-7Ralpha co-expressed on HEK293T cells (human), sequence (Q9HC73 23-371, chain 1 of 2): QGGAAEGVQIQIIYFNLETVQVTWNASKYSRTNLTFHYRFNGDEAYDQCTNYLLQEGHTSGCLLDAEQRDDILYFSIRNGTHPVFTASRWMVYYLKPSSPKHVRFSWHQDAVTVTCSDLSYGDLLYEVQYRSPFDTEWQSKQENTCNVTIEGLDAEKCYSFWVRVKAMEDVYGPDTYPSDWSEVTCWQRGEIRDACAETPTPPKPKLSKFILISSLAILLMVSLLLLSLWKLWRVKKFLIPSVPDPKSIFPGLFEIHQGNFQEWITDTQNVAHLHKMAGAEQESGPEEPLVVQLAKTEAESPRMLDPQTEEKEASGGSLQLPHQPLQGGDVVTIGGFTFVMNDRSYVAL
full-length FLAG-tagged human TSLPR and full-length HA-tagged human IL-7Ralpha co-expressed on HEK293T cells (human), sequence (P16871 21-459, chain 2 of 2, further chain): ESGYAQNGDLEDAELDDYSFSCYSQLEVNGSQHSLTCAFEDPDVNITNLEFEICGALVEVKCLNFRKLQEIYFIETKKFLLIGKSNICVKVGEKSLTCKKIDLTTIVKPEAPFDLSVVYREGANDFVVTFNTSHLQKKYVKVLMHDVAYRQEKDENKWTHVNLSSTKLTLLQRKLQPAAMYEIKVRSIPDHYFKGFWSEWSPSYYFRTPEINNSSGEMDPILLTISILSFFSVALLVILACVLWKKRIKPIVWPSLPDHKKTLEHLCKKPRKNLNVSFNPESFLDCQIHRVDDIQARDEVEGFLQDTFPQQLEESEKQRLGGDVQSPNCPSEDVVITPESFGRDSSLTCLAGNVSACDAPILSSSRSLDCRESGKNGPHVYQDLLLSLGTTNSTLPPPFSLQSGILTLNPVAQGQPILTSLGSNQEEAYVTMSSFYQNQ

STAT5-dependent luciferase activity in HEK293T cells transfected with full-length TSLPR and IL-7Ralpha [1] [pM]	koff [2] [s⁻¹]	Kd [3] [nM]	kon [3] [M⁻¹ s⁻¹]	Molecule
9	–	–	–	human TSLP_R127A_R130S, mammalian-cell derived recombinant, C-terminal His-tag (from UniProt Q969D9 29-159) (ligand)
–	1.72e-05	0.12	140000	human TSLP-trap1 (designed binder, Monomeric single chain fusion protein; Produced in T-REx-293 cells) GAAEGVQIQIIYFNLETVQVTWNASKYSRTNLTFHYRFNGDEAYDQCTNYLLQEGHTSGCLLDAEQRDDILYFSIRNGTHPVFTASRWMVYYLKPSSPKHVRFSWHQDAVTVTCSDLSYGDLLYEVQYRSPFDTEWQSKQENTCNVTIEGLDAEKCYSFWVRVKAMEDVYGPDTYPSDWSEVTCWQRGEIRDACAETPTPPKPKLSKSRGGSGGSGGSGGSGGSGGSGGSGGSGGSGGSGGSGGSGGSGGSGGSGGSGGSGGSGGSGGSLQESGYAQNGDLEDAELDDYSFSCYSQLEVNGSQHSLTCAFEDPDVNTTNLEFEICGALVEVKCLNFRKLQEIYFIETKKFLLIGKSNICVKVGEKSLTCKKIDLTTIVKPEAPFDLSVIYREGANDFVVTFNTSHLQKKYVKVLMHDVAYRQEKDENKWTHVNLSSTKLTLLQRKLQPAAMYEIKVRSIPDHYFKGFWSEWSPSYYFRTPEINNSSGEMDGTKHHHHHH

Source: US20190127440A1 (VIB VZW, published 2019)
